Numbering of substitutions follows the chain as printed. In names and notes the source's numbering stands. Several values for one entry are separate records, joined by “and”; a condition that tells them apart may be missing. Identical values can stand only once. Each block holds one binder with its values, some of them ahead of it.
Assays:
[1] = biological target: T1, human IGF1R extracellular domain, His-tagged (human, UniProt P08069 31-932); experiment: ELISA, hIGF1R coated, minibody titrated 0.000256-20 nM, Abs. at 450 nm
T1 construct: Bought (R&D Systems 391-GR or Sino Biological 10164-H08H); also called recombinant IGF1R; ECD of IGF1R
Protocol: Human IGF1R was diluted with 1 ug/ml in PBS buffer, added at an amount of 100 ul per well in 96-well ELISA plate (Nunc-Immuno Plates, NUNC, Rochester, NY), coated by reacting at 4° C. for 16 hours, and then the supernatant was removed. PBS buffer containing 3% BSA (bovine serum albumin) was added to 200 ul per well and reacted for 2 hours to block non-specific binding.
After treatment, it was wash 4 times with PBS buffer containing 0.05% Tween20, and was reacted at room temperature for an hour by adding 100 ul of the anti-human HRP recognizing human Fe of the minibody diluted in blocking buffer at 1:5000 per each well. After washing 4 times with 300 ul of PBS-T (Tween20 0.05%), the color development was performed using TMB (Tetramethylbenzidine, Sigma, T0440).

human gamma-synuclein = biological target: T2, human gamma-synuclein (human, UniProt O76070 1-127, limits assumed); experiment: ELISA, human gamma-synuclein coated at 100 ng/ml
T2 construct: bought
Description: (§1) For the positive control, RP-bound goat anti-rabbit was used as a detection antibody.

[2] = biological target: T3, human alpha-synuclein aggregates (fibrils) (human, UniProt P37840 1-140); experiment: SPR (BIAcore), antibody captured on Protein A chip, alpha-Syn fibril as analyte, 1:1 binding fit, 25 C
[3] = biological target: human alpha-synuclein monomer (human, UniProt P37840 1-140); experiment: SPR (BIAcore), antibody captured on Protein A chip, alpha-Syn monomer as analyte, 1:1 binding fit to a flat sensorgram, 25 C
[4] = biological target: T4, amyloid beta1-42 aggregates (UniProt P05067 672-713); experiment: dot blot, monomer and fibril of each protein spotted in rising amounts, antibody as probe
T4 construct: domain: amyloid beta1-42; aggregates prepared by Prof; Seung-jae Lee; also called amyloid beta1-42-derived aggregates
Protocol: (§2) The specific binding ability of the antibodies to the alpha-synuclein aggregate was analyzed by reacting with a blot.

Aβ42 (Monomer) = biological target: T5, Aβ42 (Monomer) (human, UniProt P05067); experiment: as above
T5 construct: recombinant, monomer (not aggregated); m20 is the aggregated form; also called amyloid beta1-42 monomer
Protocol: as §2

Tau protein aggregates = biological target: T6, Tau protein aggregates (UniProt P10636-8 1-441, limits assumed); experiment: dot blot
T6 construct: aggregates prepared by Prof; Seung-jae Lee; also called tau-derived aggregates

human beta-synuclein = biological target: T7, human beta-synuclein (human, UniProt Q16143 1-134, limits assumed); experiment: ELISA, human beta-synuclein coated at 100 ng/ml
T7 construct: bought
Description: as §1

[5] = biological target: T3, human alpha-synuclein aggregates …; experiment: Octet (BLI), fibrils; table of results
Protocol: The target concentrations were 20 μg/ml for the monomer and 0.4 μg/ml for the fibril. The kinetics concentration was diluted sequentially two times from 50 nM for monomers and from 100 nM for fibrils, to give 7 points in total, respectively. Association/dissociation time was 5 min/20 min for monomer and 5 min/25 min for fibril. Biosensor was ARG2 and fitting was performed using 1:1 fitting model.

[6] = biological target: T3, human alpha-synuclein aggregates …; experiment: SPR (BIAcore), fibrils; table of results
Protocol: (§3) The running buffer, analyte dilution, and the sample dilution buffer were HBS-EP. […] For the capture, the monomer was for RU of 800 (theoretical), and a fibril was for RU of 100 (theoretical). The capture phase was performed at contact time of 60 seconds, a flow rate of 30 μl/min, and a stabilization period of 180 seconds. The association phase was performed at the association time of 120 seconds and the flow rate was 30 μl/min. The dissociation phase was performed at the dissociation time of 360 seconds and the flow rate of 30 l/min. The regeneration phase was performed twice time at the regeneration time of 240 seconds (primary) and 60 seconds (secondary) and a flow rate of 30 μl/min. The fitting was carried out suing 1:1 binding model, and the evaluation software was BIACore T200 Evaluation software (GE healthcare).

[7] = biological target: T3, human alpha-synuclein aggregates …; experiment: sandwich ELISA, antibody coated at 1 ug/ml, alpha-synuclein fibril aggregates titrated
Protocol: ELISA analysis was performed to quantitatively analyze the binding affinity of the antibody of the present invention to the antigen. […] After washing with PBS, streptavidin conjugated with HRP and secondary antibody conjugate with biotin was treated and then reacted with TMB as a substrate.

[8] = biological target: T3, human alpha-synuclein aggregates …; experiment: sandwich ELISA, antibody coated in a dilution series, synuclein fibril aggregates at 2000 ng/ml; C of the 4-P fit, which paragraph 260 calls EC50
Protocol: Specifically, each antibody was diluted at 1/10 ratio of concentrations 0.04 to 400 nM and was coated on a 96-well plate, and then each well was treated with synuclein fibril aggregates were treated at 2000 ng/ml. After washing with 1×PBS, streptavidin conjugated with HRP and secondary antibody conjugate with biotin was treated and then reacted with TMB as a substrate. The absorbance was measured.

[9] = biological target: T3, human alpha-synuclein aggregates …; experiment: SPR (BIAcore), antibody captured on Protein A chip, alpha-synuclein fibril (sample aSyn180330) as analyte, 1:1 binding fit, 25 C
Protocol: as §3

human IGF1R on cells = biological target: T8, human IGF1R on cells (human, UniProt P08069 31-1367); experiment: FACS on MCF-7 cells, 10 ug/mL (2nd Ab only: 2.86)
T8 construct: also called endogenous IGF1R on the cell surface (MCF-7, JIMT-1, BT474, SKBR3); IGF1R library on OVCAR3 cells
Protocol: After washing with PBS buffer containing 1% BSA, the secondary antibody bound with FITC to detect human antibodies was treated for 1 hour.

[10] = biological target: T3, human alpha-synuclein aggregates …; experiment: BIAcore as in Example 4-3, α-syn aggregates
Protocol: as §3

[11] = biological target: T1, human IGF1R extracellular domain, …; experiment: ELISA on IGF1R protein, third experiment
[12] = biological target: T1, human IGF1R extracellular domain, …; experiment: ELISA on IGF1R protein, second experiment
[13] = biological target: T1, human IGF1R extracellular domain, …; experiment: ELISA on IGF1R protein, first experiment
[14] = biological target: T1, human IGF1R extracellular domain, …; experiment: SPR (Biacore T200), His-tagged human IGF1R ECD captured by anti-His antibody on CM4 chip, bivalent model; F06 IgG
Protocol: The anti-his antibody against the His tag bound to the human IGF1R ECD as an antigen was diluted to 20 μg/ml in acetate pH4.0 buffer, and then immobilized in the reference/analytic channel of the CM4 chip to 10,000 RU as a target RU according to the amine coupling method. During capture, PBS was used as a running buffer, and the flow rate was maintained at 30 μL/min. During association/dissociation, the flow rate was 40 μL/min, and PBS was used as the running buffer. The association/dissociation was 5 minutes and 20 minutes, respectively.

T7 sequence (Q16143 whole entry): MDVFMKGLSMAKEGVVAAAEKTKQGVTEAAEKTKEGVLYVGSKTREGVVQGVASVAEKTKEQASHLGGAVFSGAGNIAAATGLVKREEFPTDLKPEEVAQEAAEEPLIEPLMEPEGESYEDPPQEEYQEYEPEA
T6 sequence (P10636 other isoform, or with tags, fused parts or gaps limits assumed): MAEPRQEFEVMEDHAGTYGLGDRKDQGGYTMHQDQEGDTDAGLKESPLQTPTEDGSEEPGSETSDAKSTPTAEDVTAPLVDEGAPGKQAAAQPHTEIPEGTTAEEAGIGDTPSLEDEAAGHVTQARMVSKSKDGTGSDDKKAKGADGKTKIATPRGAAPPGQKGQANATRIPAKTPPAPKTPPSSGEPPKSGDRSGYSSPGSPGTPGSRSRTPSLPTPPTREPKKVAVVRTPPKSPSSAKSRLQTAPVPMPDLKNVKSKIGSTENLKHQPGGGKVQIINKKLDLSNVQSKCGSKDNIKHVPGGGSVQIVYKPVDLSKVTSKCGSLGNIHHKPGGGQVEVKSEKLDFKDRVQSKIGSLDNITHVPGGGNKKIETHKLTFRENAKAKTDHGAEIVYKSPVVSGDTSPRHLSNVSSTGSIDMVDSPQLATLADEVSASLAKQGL
T2 sequence (O76070 whole entry): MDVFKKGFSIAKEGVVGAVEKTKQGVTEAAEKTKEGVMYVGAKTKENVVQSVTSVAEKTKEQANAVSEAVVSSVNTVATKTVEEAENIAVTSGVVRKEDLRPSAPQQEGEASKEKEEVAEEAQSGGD

EC50 (read off the curve) [1]: ~0.3 nM
B1: 996 minibody (Fc fusion, not shown: a dimerising Fc or GST)
chain: QSVLTQPPSASGTPGQRVTISCTGSSSNIGSNAVNWYQQLPGTAPKLLIYSNSHRPSGVPDRFSGSKSGTSASLAISGLRSEDEADYYCATWDYSLSGYVFGCGTKLTVLGGGGSGGGGSGGGGSGGGGSEVQLLESGGGLVQTGGSLRLSCAASGFTFSSYDMSWVRQAPGKCLEWVSGIYHDGSSTYYADSVQGRFTISRDNSKNTLYLQMNSLRAEDTAVYYCARVSGTLSEPYAFFFNAMDVWGQGTLVTVSS

binding result (human gamma-synuclein): no binding | koff [2]: 7.42e-05 s⁻¹ | kon [2]: 631000 M⁻¹ s⁻¹ | koff [3]: 0.00186 s⁻¹ | binding result [4]: no binding | binding result (Aβ42 (Monomer)): no binding | binding result (Tau protein aggregates): no binding | binding result (human beta-synuclein): no binding
B2: chimeric 3A9 antibody (antibody, V domains shown)
VH: EVQLQESGGGLVKPGGSLKLSCAASGFTFSSYAMSWVRQTPEKRLEWVATISNGGGYTYYPDSVKGRFTISRDNAKNTLYLQMSSLRSEDTAMYYCARHITTVRPTKYFDYWGQGTTLTVSS
VL: DIVMTQSPKFMSTSVGDRVSITCKASQNVGTTVAWYQQKPGQSPKLLIYSASNRYTGVPDRFTGSGSGTDFTLTISNMQSEDLADYFCQQYSNYPLTFGAGTKLELR
notes: also called Ch 3A9; ch3A9

Kd [5]: 0.13 nM | Kd [6]: 1.32 nM | EC50 [7]: 0.319 µg/mL and 2.13 nM
B3: 3A9 (mouse monoclonal anti-alpha-synuclein antibody) (antibody, mouse IgG2b, V domains shown)
VH: B2 VH
VL: B2 VL

Kd [5]: 0.16 nM | Kd [6]: 2.87 nM | EC50 [7]: 0.327 µg/mL and 2.18 nM
B4: 11F11 (mouse monoclonal anti-alpha-synuclein antibody) (antibody, mouse IgG2b, V domains shown)
VH: EVQLQESGGGLVQPGGSLRLSCATSGFTFSDFYMEWVRQPPGKRLEWIAASRNKANDYTTEYSASVKGRFIVSRDTSQSILYLQMNALRAEDTAIYYCARDAHGKPFAYWGQGTLVTVSA
VL: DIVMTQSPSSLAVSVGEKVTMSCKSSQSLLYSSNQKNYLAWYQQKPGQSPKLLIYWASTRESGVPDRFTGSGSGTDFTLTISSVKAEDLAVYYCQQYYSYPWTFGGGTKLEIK

EC50 [8]: 11.5 nM | koff [9]: 5.36e-05 s⁻¹ | kon [9]: 845000 M⁻¹ s⁻¹
B5: hu11F11(ver.1) (antibody, human IgG1, kappa, V domains shown)
VH: B4 VH with Q5V, I71T, V72I, T76D, Q78K, I80S, A87S, L115T, A120S
VL: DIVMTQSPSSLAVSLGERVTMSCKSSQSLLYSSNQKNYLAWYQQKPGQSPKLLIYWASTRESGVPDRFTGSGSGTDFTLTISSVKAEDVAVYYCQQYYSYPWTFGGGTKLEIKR
notes: humanized IgG1; also called Hu11F11-VH-v1 + Hu11F11-VLv3 4c

GeoMean, Internalization at 37° C. (human IGF1R on cells): 3.18 | EC50 [8]: 15.1 nM | Kd [10]: 0.0596 nM | koff [9]: 0.000173 s⁻¹ | kon [9]: 1.19e+06 M⁻¹ s⁻¹
B6: hu11F11(ver.2) (antibody, human IgG1, kappa, V domains shown)
VH: B4 VH with Q5V, I71T, T76D, Q78K, I80S, A87S, L115T, A120S
VL: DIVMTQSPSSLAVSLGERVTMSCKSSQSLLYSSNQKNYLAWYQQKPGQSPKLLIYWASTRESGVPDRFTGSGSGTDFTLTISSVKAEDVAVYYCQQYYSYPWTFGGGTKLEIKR
notes: humanized IgG1; also called Hu11F11-VH-v2 + Hu11F11-VLv3 4c

EC50 [8]: 13.4 nM | Kd [10]: 0.0316 nM | kon [9]: 1.07e+06 M⁻¹ s⁻¹
B7: hu11F11(ver.3) (antibody, human IgG1, kappa, V domains shown)
VH: B4 VH with Q5V, I71T, V72I, Q78K, I80S, A87S, L115T, A120S
VL: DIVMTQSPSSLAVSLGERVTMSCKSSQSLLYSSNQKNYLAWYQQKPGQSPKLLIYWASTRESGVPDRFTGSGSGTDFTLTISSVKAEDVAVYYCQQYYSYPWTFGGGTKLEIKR
notes: humanized IgG1; also called Hu11F11-VH-v3 + Hu11F11-VLv3 4c

EC50 [8]: 12.9 nM | Kd [10]: 0.0204 nM | koff [9]: 0.000291 s⁻¹ | kon [9]: 1.07e+06 M⁻¹ s⁻¹
B8: hu11F11(ver.4) (antibody, human IgG1, kappa, V domains shown)
VH: B4 VH with Q5V, I71T, Q78K, I80S, A87S, L115T, A120S
VL: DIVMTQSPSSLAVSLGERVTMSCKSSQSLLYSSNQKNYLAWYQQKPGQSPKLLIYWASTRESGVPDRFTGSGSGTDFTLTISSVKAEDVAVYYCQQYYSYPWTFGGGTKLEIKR
notes: humanized IgG1; also called Hu11F11-VH-v4 + Hu11F11-VLv3 4c

binding result (human gamma-synuclein): no binding | koff [2]: 4.39e-05 s⁻¹ | kon [2]: 629000 M⁻¹ s⁻¹ | koff [3]: 0.000571 s⁻¹ | kon [3]: 2210 M⁻¹ s⁻¹ | binding result [4]: no binding | binding result (Aβ42 (Monomer)): no binding | binding result (Tau protein aggregates): no binding | binding result (human beta-synuclein): no binding
B9: chimeric 9B11 antibody (antibody, V domains shown)
VH: EVQLQESGGGLVQPKGSLKLSCAASGFTFNTYAMNWVRQAPGKGLEWVARIRSKSNNYATYYADSVKDRFTISRDDSQSMLYLQMNNLKTEDTAMYYCVRQDFDYWGQGTTLTVSS
VL: DIVMTQSPLSLPVSLGDQASISCRSSQSLVHSNGNTYLHWYLQKPGQSPKLLIYKVSNRFSGVPDRFSGSGSGTDFTLKISRVEAEDLGVYFCSQSTHVPLTFGAGTKLEQK
notes: also called ch9B11; 9B11 (chimeric)

Kd [5]: 0.018 nM | Kd [6]: 0.904 nM | EC50 [7]: 0.185 µg/mL and 1.23 nM
B10: 9B11 (mouse monoclonal anti-alpha-synuclein antibody) (antibody, V domains shown)
VH: B9 VH
VL: B9 VL

EC50 [11]: 6.87 nM | EC50 [12]: 2.66 nM | Saturation value [12]: 0.977 | EC50 [13]: 2.15 nM | Saturation value [13]: 1.1
B11: 1564 clone (anti-IGF1R antibody, format not stated) (antibody, V domains shown)
VH: EVQLLESGGGLVQPGGSLRLSCAASGFTFSSYDMSWVRQAPGKGLEWVSAISYDNGNTYYADSVKGRFTISRDNSKNTLYLQMNSLRAEDTAVYYCAKGVLTTLMNWFDYWGQGTLVTVSS
VL: QSVLTQPPSASGTPGQRVTISCTGSSSNIGSNDVSWYQQLPGTAPKLLIYANSNRPSGVPDRFSGSKSGTSASLAISGLRSEDEADYYCGAWDDSLNGYVFGGGTKLTVL

EC50 [13]: 2.63 nM | Saturation value [13]: 1.08
B12: 1564-VL(N95aH) (antibody, V domains shown)
VH: B11 VH
VL: B11 VL with P60S, N97H

EC50 [12]: 2.2 nM | Saturation value [12]: 0.885
B13: 1564-VH(N54Q) (antibody, V domains shown)
VH: B11 VH with N55Q
VL: B11 VL

EC50 [12]: 2.89 nM | Saturation value [12]: 0.933
B14: 1564-VH(N54D) (antibody, V domains shown)
VH: B11 VH with N55D
VL: B11 VL

EC50 [12]: 2.07 nM | Saturation value [12]: 0.896
B15: 1564-VL(N95aD) (antibody, V domains shown)
VH: B11 VH
VL: B11 VL with P60S, N97D

EC50 [13]: 2.07 nM | Saturation value [13]: 1.18
B16: 1564-VL(N95aK) (antibody, V domains shown)
VH: B11 VH
VL: B11 VL with P60S, N97K

Kd [14]: 478 nM
B17: F06 IgG antibody (antibody, V domains shown)
VH: B11 VH
VL: B11 VL with A91T, D93A, D94G

EC50 [11]: 7.35 nM
B18: 1564-VL(N51D) (antibody, V domains shown)
VH: B11 VH
VL: B11 VL with N52D, P60S
